Experimental data as given in patent US20170174783A1 (Zymeworks, published 2017).

Columns and labels:
[1] = molecular target: T1, HER2 on the surface of human tumour cell lines (human, UniProt P04626 23-1255); assay: flow cytometry on SKOV3 cells
T1 construct: whole, on cells; also called ErbB2; Her2 receptor
Experimental: (§1) Binding of the test antibodies to the surface of SKOV3 cells was determined by flow cytometry. Cells were washed with PBS and resuspended in DMEM at 1×10⁵ cells/100 μl. 100 μl cell suspension was added into each microcentrifuge tube, followed by 10 μl/tube of the antibody variants. The tubes were incubated for 2 hr 4° C. on a rotator. The microcentrifuge tubes were centrifuged for 2 min 2000 RPM at room temperature and the cell pellets washed with 500 μl media. Each cell pellet was resuspended 100 μl of fluorochrome-labelled secondary antibody diluted in media to 2 μg/sample. The samples were then incubated for 1 hr at 4° C. on a rotator. After incubation, the cells were centrifuged for 2 min at 2000 RPM and washed in media. The cells were resuspended in 500 μl media, filtered in tube containing 5 μl propidium iodide (PI) and analyzed on a BD LSRII flow cytometer according to the manufacturer's instructions.

[2] = molecular target: T1, HER2 on the surface of human tumour …; assay: flow cytometry on SKOV3 cells; remark: listed apart in the source
Experimental: as §1

[3] = molecular target: T1, HER2 on the surface of human tumour …; assay: flow cytometry on MALME-3M cells

B1: OA4-scFv-BID2 (antibody)
chain 1: QVQLVQSGAEVKKPGESLKISCKGSGYSFTSYWIAWVRQMPGKGLEYMGLIYPGDSDTKYSPSFQGQVTISVDKSVSTAYLQWSSLKPSDSAVYFCARHDVGYCTDRTCAKWPEWLGVWGQGTLVTVSSGGGGSSGGGSGGGGSQSVLTQPPSVSAAPGQKVTISCSGSSSNIGNNYVSWYQQLPGTAPKLLIYDHTNRPAGVPDRFSGSKSGTSASLAISGFRSEDEADYYCASWDYTLSGWVFGGGTKLTVLGAAEPKSSDKTHTCPPCPAPELLGGPSVFLFPPKPKDTLMISRTPEVTCVVVDVSHEDPEVKFNWYVDGVEVHNAKTKPREEQYNSTYRVVSVLTVLHQDWLNGKEYKCKVSNKALPAPIEKTISKAKGQPREPQVYTYPPSRDELTKNQVSLTCLVKGFYPSDIAVEWESNGQPENNYKTTPPVLDSDGSFALVSKLTVDKSRWQQGNVFSCSVMHEALHNHYTQKSLSLSPGK
chain 2: not shown
notes: also called 878
- fold difference in Bmax, OA4-scFv-BID2 against FSA-scFv-BID2 [1]: 1.96 fold
- fold difference in KD, OA4-scFv-BID2 against FSA-scFv-BID2 [1]: 2.03 fold
- Kd [2]: 12.4 nM
- EC50 (read off the curve) [3]: ~30 nM
